The test has as its target prolactin receptor on Nb2 T lymphoma cells (rat) (UniProt P05710). The experiment in a line: cell-based or functional assay.
Sequence of UniProt P05710 (P05710 20-610): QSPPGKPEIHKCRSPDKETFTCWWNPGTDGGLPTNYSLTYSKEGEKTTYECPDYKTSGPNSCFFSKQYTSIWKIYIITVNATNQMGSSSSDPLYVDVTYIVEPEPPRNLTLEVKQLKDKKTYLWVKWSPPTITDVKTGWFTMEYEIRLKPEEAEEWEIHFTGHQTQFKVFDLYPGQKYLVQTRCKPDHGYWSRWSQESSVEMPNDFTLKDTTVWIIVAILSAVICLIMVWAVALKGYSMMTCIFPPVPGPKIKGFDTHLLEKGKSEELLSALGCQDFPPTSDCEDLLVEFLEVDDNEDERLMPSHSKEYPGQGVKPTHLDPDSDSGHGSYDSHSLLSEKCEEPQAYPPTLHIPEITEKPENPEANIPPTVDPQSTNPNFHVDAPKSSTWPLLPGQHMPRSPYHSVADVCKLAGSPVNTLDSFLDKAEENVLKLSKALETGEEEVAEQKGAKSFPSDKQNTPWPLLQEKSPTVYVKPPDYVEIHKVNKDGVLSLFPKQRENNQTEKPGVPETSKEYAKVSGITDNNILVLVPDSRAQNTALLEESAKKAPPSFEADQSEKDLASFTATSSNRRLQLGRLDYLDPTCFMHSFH

In the case of “human prolactin aspartate mutant (serine 179 substituted with aspartate) (from UniProt P01236 29-227) (ligand)”, the inhibition of the Nb2 cell growth response to 400 pg/ml wild-type PRL by 200 pg/ml aspartate mutant (MTS assay) was determined as 75%. In turn, “human prolactin glutamate mutant (serine 179 substituted with glutamate) (from UniProt P01236 29-227) (ligand)” came in with a reduction of the Nb2 cell growth response to 800 pg/ml wild-type PRL by 200 pg/ml glutamate mutant (MTS assay) (fraction of growth response) of 0.5.

The record behind these values is patent US6890738.
